From publication doi:10.1101/2023.06.20.545120, “Magnetogenetic cell activation using endogenous ferritin” (bioRxiv, 2024)

What was measured:
human spleen ferritin [1] = molecular target: T1, human spleen ferritin (Homo sapiens, UniProt P02794;P02792); assay: ITC; 10 uM human spleen ferritin in the cell, 75 uM NbFt2 in the syringe, 25 °C; MicroCal Auto-iTC200; conditions: both partners purified
T1 construct: ferritin heavy chain, human, as part of ferritin from spleen; ferritin light chain, human, as part of ferritin from spleen; Tissue ferritin is a shell of heavy and light chains; also called human ferritin; source: bought: Lee Biosolutions (human spleen ferritin)
T1 sequence (P02794 whole entry, chain 1 of 2): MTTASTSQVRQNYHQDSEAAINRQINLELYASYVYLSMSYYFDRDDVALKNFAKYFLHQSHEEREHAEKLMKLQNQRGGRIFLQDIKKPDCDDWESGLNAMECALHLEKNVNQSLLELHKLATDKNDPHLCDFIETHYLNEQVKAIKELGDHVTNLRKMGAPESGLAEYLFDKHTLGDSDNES
T1 sequence (P02792 whole entry, chain 2 of 2): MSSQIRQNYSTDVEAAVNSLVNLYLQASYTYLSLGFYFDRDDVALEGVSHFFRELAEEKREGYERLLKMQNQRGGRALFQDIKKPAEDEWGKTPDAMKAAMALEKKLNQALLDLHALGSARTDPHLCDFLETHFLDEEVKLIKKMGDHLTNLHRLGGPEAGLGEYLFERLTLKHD

[2] = molecular target: T2, endogenous human ferritin of HEK-293T cells (Homo sapiens (HEK-293T, endogenous), UniProt P02794;P02792); assay: affinity purification with mass spectrometry; the anti-HA immunoprecipitates of nanobody-HA-mCherry from HEK-293T with GFP-mFerritin; LC-MS/MS, abundance from peptides unique to mouse or human ferritin heavy chain; enrichment against cells with GFP-mFerritin alone; conditions: partners not purified
T2 construct: ferritin heavy chain, human; the chain whose unique peptides were quantified; ferritin light chain, human; Only the heavy chain was measured; also called human ferritin heavy chain; FTH1_human
T2 sequence (P02794 whole entry, chain 1 of 2): as the sequence (P02794 whole entry, chain 1 of 2) above
T2 sequence (P02792 whole entry, chain 2 of 2): as the sequence (P02792 whole entry, chain 2 of 2) above

[3] = molecular target: T3, GFP-tagged mouse ferritin (Mus musculus (ferritin moiety), UniProt P09528, chimera); assay: as above; conditions: partners not purified
T3 construct: green fluorescent protein, the N-terminal GFP moiety of GFP-mFerritin; the rest of the chimeric ferritin and its linkers; ferritin heavy chain, mouse; found by mass spectrometry as the mouse ferritin of the construct; Runs at about 71 kDa; also called GFP-mFerritin; GFP-ferritin

human spleen ferritin [4] = molecular target: T1, human spleen ferritin; assay: ELISA; first-round screen: crude periplasmic extracts of the clones on coated human spleen ferritin or mouse liver ferritin; absorbance ratio greater than 2.5 selected; conditions: one partner purified
mouse liver ferritin = molecular target: T4, mouse liver ferritin (Mus musculus, UniProt P09528;P29391); assay: as above; conditions: one partner purified
T4 construct: ferritin heavy chain, mouse, as part of ferritin from liver; ferritin light chain, mouse, as part of ferritin from liver; Tissue ferritin is a shell of heavy and light chains; also called mouse ferritin; mouse ferritin purified from mouse liver; source: bought: Gentaur (purified from mouse liver)
T4 sequence (P09528 whole entry, chain 1 of 2): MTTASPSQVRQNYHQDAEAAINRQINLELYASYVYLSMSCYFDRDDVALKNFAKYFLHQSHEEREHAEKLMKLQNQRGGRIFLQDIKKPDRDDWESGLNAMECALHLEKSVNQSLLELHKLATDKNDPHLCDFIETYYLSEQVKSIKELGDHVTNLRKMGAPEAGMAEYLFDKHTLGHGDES
T4 sequence (P29391 whole entry, chain 2 of 2): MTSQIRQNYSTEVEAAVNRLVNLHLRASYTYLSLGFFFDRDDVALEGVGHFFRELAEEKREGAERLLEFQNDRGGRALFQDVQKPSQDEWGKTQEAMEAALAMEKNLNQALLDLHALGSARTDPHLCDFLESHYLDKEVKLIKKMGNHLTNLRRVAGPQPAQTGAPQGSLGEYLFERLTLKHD

[5] = molecular target: T3, GFP-tagged mouse ferritin; assay: co-IP; HEK-293T co-transfected with nanobody-HA-mCherry and GFP-mFerritin; lysis buffer 50 mM Tris pH 7.5, 300 mM NaCl, 1% NP-40, 0.1% SDS; anti-HA agarose overnight at 4 °C; eluate on SDS-PAGE, Coomassie; conditions: partners not purified

B1: anti-ferritin nanobody clone 2 (VHH)
VHH: QVQLQESGGGLVQPGGSLRLSCAASGLAFSNYGMGWFRQAPGKEREFVSAVSWISDTTNYADSVKGRFTISRDNARNTVYLQMNSLKVEDTAVYYCAAGLGAPRVVAGSYQHWGQGTQVTVSS
notes: The text calls the preparation partially purified; also called Nb-Ft clone 2; Nb-Ft-2; source: crude periplasmic extract of the phage display clone (pMECS); E. coli WK6, purified (periplasmic extract, cobalt IMAC)
Q: How did the Kd (human spleen ferritin [1]) turn out when B1 was run?
A: The Kd was 540 ± 200 nM.

B2: anti-ferritin nanobody clone 2 fused to HA-tagged mCherry (VHH)
VHH: QVQLQESGGGLVQPGGSLRLSCAASGLAFSNYGMGWFRQAPGKEREFVSAVSWISDTTNYADSVKGRFTISRDNARNTVYLQMNSLKVEDTAVYYCAAGLGAPRVVAGSYQHWGQGTQVTVSS
notes: the VHH as in m4; In the functional rows this id stands for the same VHH fused to the N-terminus of TRPV1 (Nb-Ft-2-TRPV1^Ca2+); also called Nb-Ft-2; Nb-Ft-HA-mCherry (clone 2)
Q: Which “fold enrichment in the immunoprecipitate over cells with GFP-mFerritin alone” value (from here on “fold enrichment in the immunoprecipitate”) [2] does the source give for B2 here?
A: The value was 58.1 fold.

Q: What about the “fold enrichment in the immunoprecipitate” value [3] of the same binder?
A: The value was 14.5 fold.

B3: anti-ferritin nanobody clone 1 (VHH)
VHH: QVQLQESGGGLVQAGGSLRLSCTASGLAFSSYAMGWFRQAPGKEREFVATIGWTGGTTNYADSVKGRFTISRDNARNTVYLQMNSLKVEDTAVYYCAAGLGAPTVVAGSYQHWGQGTQVTVSS
notes: One of the 17 nanobodies of CDR3 groups 6 and 26; also called Nb-Ft clone 1; Nb-Ft-1; source: crude periplasmic extract of the phage display clone (pMECS)
Q: Does B3 bind (human spleen ferritin [4])?
A: Result: binds

B4: anti-ferritin nanobody clone 14 (VHH)
VHH: QVQLQESGGGLVQPGGSLRLSCAASGLAFSSYGMGWFRQAPGKEREFVVAIPWSGGTTNYADSVKGRFTISRDNARNTVYLQMNSLKVEDTAVYYCAAGLGAPTVVADSYQHWGQGTQVTVSS
notes: The text calls the preparation partially purified; also called Nb-Ft clone 14; Nb-Ft-14; source: crude periplasmic extract of the phage display clone (pMECS); E. coli WK6, purified (periplasmic extract, cobalt IMAC)
Q: Does B4 bind (mouse liver ferritin)?
A: Result: binds

B5: anti-ferritin nanobody clone 10 (VHH)
VHH: QVQLQESGGGLVQAGGSLRLSCAASGLAFSSYGMGWFRQAPGKEREFVVAIPWSGGTTNYADSVKGRFTISRDNARNTVYLQMNSLKVEDTAVYYCAAGLGAPTVVADSYQHWGQGTQVTVSS
notes: The text calls the preparation partially purified; also called Nb-Ft clone 10; Nb-Ft-10; source: crude periplasmic extract of the phage display clone (pMECS); E. coli WK6, purified (periplasmic extract, cobalt IMAC)
Q: Does B5 bind (mouse liver ferritin)?
A: Result: binds

B6: anti-ferritin nanobody clone 9 (VHH)
VHH: QVQLQESGGGLVQAGGSLRLSCAASGLAFSSYGMGWFRQAPGKEREFVAAIRWSGGTTNYADSVKGRFTISRDNVRNTAYLQMNSLKVEDTAVYYCAAGLGAPTVVADSYQHWGQGTQVTVSS
notes: The text calls the preparation partially purified; also called Nb-Ft clone 9; Nb-Ft-9; source: crude periplasmic extract of the phage display clone (pMECS); E. coli WK6, purified (periplasmic extract, cobalt IMAC)
Q: Does B6 bind (mouse liver ferritin)?
A: Result: binds

B7: anti-ferritin nanobody clone 10 fused to HA-tagged mCherry (VHH)
VHH: QVQLQESGGGLVQAGGSLRLSCAASGLAFSSYGMGWFRQAPGKEREFVVAIPWSGGTTNYADSVKGRFTISRDNARNTVYLQMNSLKVEDTAVYYCAAGLGAPTVVADSYQHWGQGTQVTVSS
notes: the VHH as in m12; also called Nb-Ft-10; Nb-Ft-HA-mCherry (clone 10)
Q: Does B7 bind [5]?
A: Result: binds

Q: What about the “fold enrichment in the immunoprecipitate” value [2] of the same binder?
A: The value was 7 fold.

B8: anti-ferritin nanobody clone 14 fused to HA-tagged mCherry (VHH)
VHH: QVQLQESGGGLVQPGGSLRLSCAASGLAFSSYGMGWFRQAPGKEREFVVAIPWSGGTTNYADSVKGRFTISRDNARNTVYLQMNSLKVEDTAVYYCAAGLGAPTVVADSYQHWGQGTQVTVSS
notes: the VHH as in m16; In the functional row this id stands for the same VHH fused to the N-terminus of TRPV1; also called Nb-Ft-14; Nb-Ft-HA-mCherry (clone 14)
Q: Which results are given for B8?
A: binding result [5]: binds; fold enrichment in the immunoprecipitate over cells with GFP-mFerritin alone [2]: 5.1 fold

B9: anti-ferritin nanobody clone 5 (VHH)
VHH: QVQLQESGGGLVQAGGSLRLSCAASGLAFSSYGMGWFRQAPGKEREFVASISWSGGTTNYADSVKGRLTISRDNARNTVYLQMNSLKVEDTAVYYCAAGLGAPRVVAGSYQHWGQGTQVTVSS
notes: One of the 17 nanobodies of CDR3 groups 6 and 26; also called Nb-Ft clone 5; Nb-Ft-5; source: crude periplasmic extract of the phage display clone (pMECS)
Q: Does B9 bind (human spleen ferritin [4])?
A: Result: binds

B10: anti-ferritin nanobody clone 7 (VHH)
VHH: QVQLQESGGGLVQAGGSLRLSCAASGLAFSSYAMGWFRQAPGKEREFVAAIMWSGGTTNYADSVKGRFTISRDNVRNTVYLQMNSLKVEDAAVYYCAAGLGAPTVVADSFQHWGQGTQVTVSS
notes: One of the 17 nanobodies of CDR3 groups 6 and 26; also called Nb-Ft clone 7; Nb-Ft-7; source: crude periplasmic extract of the phage display clone (pMECS)
Q: Does B10 bind (human spleen ferritin [4])?
A: Result: binds

B11: anti-ferritin nanobody clone 6 (VHH)
VHH: QVQLQESGGGLVQAGGSLRLSCAASGLAFSSYGMGWFRQAPGKEREFVAAIGWTGGTTNYADSVKGRFIISRDNARNTVYLQMNSLKVEDTAVYYCAAGLGAPMVVVGSYQHWGQGTQVTVSS
notes: One of the 17 nanobodies of CDR3 groups 6 and 26; also called Nb-Ft clone 6; Nb-Ft-6; source: crude periplasmic extract of the phage display clone (pMECS)
Q: Does B11 bind (human spleen ferritin [4])?
A: Result: binds

B12: anti-ferritin nanobody clone 9 fused to HA-tagged mCherry (VHH)
VHH: QVQLQESGGGLVQAGGSLRLSCAASGLAFSSYGMGWFRQAPGKEREFVAAIRWSGGTTNYADSVKGRFTISRDNVRNTAYLQMNSLKVEDTAVYYCAAGLGAPTVVADSYQHWGQGTQVTVSS
notes: the VHH as in m11; In the functional row this id stands for the same VHH fused to the N-terminus of TRPV1; also called Nb-Ft-9; Nb-Ft-HA-mCherry (clone 9)
Q: Does B12 bind [5]?
A: Result: binds

Q: What about the “fold enrichment in the immunoprecipitate” value [2] of the same binder?
A: Its value is 4.6 fold.

B13: anti-ferritin nanobody clone 3 (VHH)
VHH: QGQLQESGGGAVQAGGSLRLSCAASGLAFSSYGMGWFRQAPGKEREFVASISWTGGTTNYADSVKGRLTISRDNARNTVYLQMNSLKVEDTAVYYCAAGLGAPRVVAGSYQHWGQGTQVTVSS
notes: One of the 17 nanobodies of CDR3 groups 6 and 26; also called Nb-Ft clone 3; Nb-Ft-3; source: crude periplasmic extract of the phage display clone (pMECS)
Q: Does B13 bind (human spleen ferritin [4])?
A: Result: binds

B14: anti-ferritin nanobody clone 12 (VHH)
VHH: QVQLQESGGGLVQAGGSLRLSCAASGLAFSSYGMGWFRQAPGEEREFVAAISWSGGTTNYADFVKGRFTISRDNARNTVYLQMNSLKVEDTAVYYCAAGLGAPTVVAGSYQHWGQGTQVTVSS
notes: One of the 17 nanobodies of CDR3 groups 6 and 26; also called Nb-Ft clone 12; Nb-Ft-12; source: crude periplasmic extract of the phage display clone (pMECS)
Q: Does B14 bind (mouse liver ferritin)?
A: Result: binds

B15: anti-ferritin nanobody clone 11 (VHH)
VHH: QVQLQESGGGLVQPGGSLRLSCVATGLSFAKSWMYWVRQAPGKGLEWVAQISPSSVLIQYPDSVSGRFTVSRDNAKNTLFLQMDSLKSEDTAVYYCSTEMDGTSRGQGTQVTVSS
notes: One of the 17 nanobodies of CDR3 groups 6 and 26; also called Nb-Ft clone 11; Nb-Ft-11; source: crude periplasmic extract of the phage display clone (pMECS)
Q: Does B15 bind (mouse liver ferritin)?
A: Result: binds

B16: anti-ferritin nanobody clone 13 (VHH)
VHH: QVQLQESGGGLVQPGGSLRLSCVASGLSFANSWMYWVRQAPGKGLEWVAQISPSSLLINYPNSVSGRFTVSRDNAKNTLFLQMDSLKSEDTAVYYCSTGMDGTSRGQGTQVTVSS
notes: One of the 17 nanobodies of CDR3 groups 6 and 26; also called Nb-Ft clone 13; Nb-Ft-13; source: crude periplasmic extract of the phage display clone (pMECS)
Q: Does B16 bind (mouse liver ferritin)?
A: Result: binds

B17: anti-ferritin nanobody clone 4 (VHH)
VHH: QVQLQESGGGLVQPGGSLRLSCAASGLSFANSWMYWVRQAPGKGLEWVAQISPSSLLINYPDSVSGRFTVSRDNAKNTLFLQMDSLKPEDTAVYYCSTEMDGTSRGQGTQVTVSS
notes: One of the 17 nanobodies of CDR3 groups 6 and 26; also called Nb-Ft clone 4; Nb-Ft-4; source: crude periplasmic extract of the phage display clone (pMECS)
Q: Does B17 bind (human spleen ferritin [4])?
A: Result: binds

B18: anti-ferritin nanobody clone 16 (VHH)
VHH: QVQLQESGGGLVQPGGSLRLSCAASGLSFANSWMYWVRQAPGKGLEWVAQISPSSILIQYPDSVSGRFTVSRDNAKNTLFLQMDSLKPEDTAVYYCSTEMDGTSRGQGTQVTVSS
notes: One of the 17 nanobodies of CDR3 groups 6 and 26; also called Nb-Ft clone 16; Nb-Ft-16; source: crude periplasmic extract of the phage display clone (pMECS)
Q: Does B18 bind (mouse liver ferritin)?
A: Result: binds

B19: anti-ferritin nanobody clone 15 (VHH)
VHH: QVQLQESGGGLVQPGGSLRLSCAASGLSFAKSWMYWVRQAPGKGLEWVAQISPSSVLIQYPDSVSGRFTVSRDNAKNTLFLQMDSLKPEDAAQYYCATDMSGTYRGQGTQVTVSS
notes: One of the 17 nanobodies of CDR3 groups 6 and 26; also called Nb-Ft clone 15; Nb-Ft-15; source: crude periplasmic extract of the phage display clone (pMECS)
Q: Does B19 bind (mouse liver ferritin)?
A: Result: binds

B20: anti-ferritin nanobody clone 17 (VHH)
VHH: QVQLQESGGGAVQAGGSLRLSCAASGLAFSSYGMGWFRQAPGKEREFVAAISWGDGTTNYADSVKGRLTISRDNARNTVYLQMNSLKVGDTAVYYCAAGLGAPRAVAGSFQHWGQGTQVTVSS
notes: The text calls the preparation partially purified; also called Nb-Ft clone 17; Nb-Ft-17; source: crude periplasmic extract of the phage display clone (pMECS); E. coli WK6, purified (periplasmic extract, cobalt IMAC)
Q: Does B20 bind (mouse liver ferritin)?
A: Result: binds

B21: anti-ferritin nanobody clone 17 fused to HA-tagged mCherry (VHH)
VHH: QVQLQESGGGAVQAGGSLRLSCAASGLAFSSYGMGWFRQAPGKEREFVAAISWGDGTTNYADSVKGRLTISRDNARNTVYLQMNSLKVGDTAVYYCAAGLGAPRAVAGSFQHWGQGTQVTVSS
notes: the VHH as in m19; also called Nb-Ft-17; Nb-Ft-HA-mCherry (clone 17)
Q: For B21, which “fold enrichment in the immunoprecipitate” value [2] is on record?
A: The value was 20.9 fold.

Q: What about the “fold enrichment in the immunoprecipitate” value [3] of the same binder?
A: Its value is 6 fold.

B22: anti-ferritin nanobody clone 8 (VHH)
VHH: QVQLQESGGGLVQPGGSLRLSCAASGFSFGDTWMYWVRQAPGKDIEWVAQISPSSVLINYPDSVSGRFTVGRDNAKNTLWLQMDSLKSEDTAVYYCATKMDGASRGQGTQVTVSS
notes: One of the 17 nanobodies of CDR3 groups 6 and 26; also called Nb-Ft clone 8; Nb-Ft-8; source: crude periplasmic extract of the phage display clone (pMECS)
Q: Does B22 bind (mouse liver ferritin)?
A: Result: binds
